Data: the supplement of paper PMC9170038

Columns and labels:
MS2 coat protein [1] = assay: apparent KD of MS2 coat protein, switch OFF state (with FMN for OFF switches, without FMN for ON switches); designed switch direction (-1 OFF switch, 1 ON switch): -1; higher = weaker reporter binding; conditions: FMN input: 0 or 200 uM; Eterna round: R93 (includes R88 designs)
Method in brief: (§1)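 Apparent KD stands for the median, per design, of fits to normalised cluster binding curves. The curves came from titrating on-chip-transcribed RNA switches on Illumina sequencing clusters with SNAP-549-labelled MS2 coat protein, twofold from 0.7 or 1.5 nM to 3 µM. Buffer was 100 mM Tris-HCl pH 7.5, 80 mM KCl, 4 mM MgCl2, without or with constant ligand.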

MS2 coat protein [2] = assay: apparent KD of MS2 coat protein, switch ON state; designed switch direction (-1 OFF switch, 1 ON switch): -1; higher = weaker reporter binding; conditions: FMN input: 0 or 200 uM; Eterna round: R93 (includes R88 designs)
Method in brief: as §1

| Sequence | apparent KD of MS2 coat protein (MS2 coat protein [1]) [µM] | apparent KD of MS2 coat protein (MS2 coat protein [2]) [µM] |
| --- | --- | --- |
| AAGAAGAGAGGAUAUACAUGAAAGAAAGAAAAGAAAAGAAAACAUGAGGAUCACCCAUGUAGAAGGCUCAAGAA [EteRNA is fun!] | 0.0406 | 0.0394 |
| AAAUGCUGAGGAUAUACAUGAGGAUCACCCAUGUAAAAUAAAUAAUGGGUGUAAACGUGUAGAAGGCAGCAUAA [Exclusion 3.14d (FMN+ favored )] | 0.0168 | 0.0338 |
| AUAAAACAUGAGGAUCACCCAUGUGAGGAUAUGCGAAAGAAAGAAAGAAAGAAAGAAAGCAGAAGGCACAAUAA [Amethyst 42] | 0.0326 | 0.0301 |
| AAACAUGGAGGAUAUACAUGAGGAUCACCCAUGUGUAUGAAAAAAUAUACAAAAGAAUGUAGAAGGCCAUGAAA [Mat - Exclusion 3 - Mayanna mod - D102] | 0.0478 | 0.0269 |
| AGUCAUACAGGAUAUACAUGAGGAUCACCCAUGUAUAUCCAAAAAAAAAAAAAAACAUGUAGAAGGGUAUGACA [EX3 207: Super Stable 7] | 0.00741 | 0.0108 |
| AAAAAGUCAGGAUAUAUCAAAGCCUAUGAAAGUGGGAAAGGGUAGAAGGGACAUGAGGAUCACCCAUGUAAAAA [Banishment 10 - Jieux - Exclusion 4] | 0.0385 | 0.0623 |
| AAAAAGGGAGGAUAUGCAUACACACAAAAAAAAAAACCGGGACAUGAGGAUCACCCAUGUAGAAGGCCCAAAAA [Dora Explored 6 - Jieux - Exclusion 2] | 0.025 | 0.0335 |
| UAGAACCUAGGAUAUACUUGGACCACUAAUUUACAGAUAUAACAUGAGGAUCACCCAUGUAGAAGGAGGAGUAA [JR_Exc002_Sub202] | 0.0257 | 0.0368 |
| GAAAACAGAGGAUAUACAUGAUUAUGACGAAAGUCAUAAAAACAUGAGGAUCACCCAUGUAGAAGGCUGAAGAA [Meechl MS2 Ex2 2] | 0.164 | 0.13 |
| AAAAAGUUAGGAUAUACAUGAGGAUCACCCAUGUGCACGUAUGGAGAAUAUGGUGGUGGUAGAAGGGACAAAAA [EX2 Malc#19] | 0.0655 | 0.0432 |
| AAAAAACAUGAGGAUCACCCAUGUGAGGAUAUCCUAAACAAAAAAAACAAAAACAAAUGGAGAAGGCACAAAAA [Amethyst 35] | 0.126 | 0.105 |
| AACUGUACAGGAUAUACAUGAGGAUCACCCAUGUGAGAAUUAAGUGGCGUACCACAAAGUAGAAGGGUACAGGA [Mat - Exclusion 3 - JL mod - D15] | 0.192 | 0.0364 |
| AAAAAGCUAGGAUAUACGAAAAAAAAGGGUAAAAUAAAUAAACAUGAGGAUCACCCAUGUAGAAGGAGCAAAAA [Mat - Exclusion 2 - Tesla mod - D37] | 0.0383 | 0.0426 |
| AAAAAAGGAGGAUAUACGAACAUGUCAAAAGACGUGAAGGGACAUGAGGAUCACCCAUGUAGAAGGUUUAAAAA [JL Wide Open 32] | 0.015 | 0.048 |
| AAAAAGGCAGGAUAUGCAUACUCACGGAAAAACUGGAUGGUACAUGAGGAUCACCCAUGUAGAAGGGCUAAAAA [Dora Explored 16 - Jieux - Exclusion 2] | 0.0443 | 0.055 |
| AAAAAACAUGAGGAUCACCCAUGUGAGGAUAUGAUGCGAAUAAAGAAAGAAGAAAGCAUCAGAAGGCACAAAAA [58%, Disencluded 3, 2] | 0.0435 | 0.0258 |
| AAAAAUGCAGGAUAUACAUGAGGAUCACCCAUGUUAGACCUGAAAAAAGGGAAAGAAAGUAGAAGGGCAUAAAA [Ex 3 May 30] | 0.0112 | 0.0127 |

| Sequence | apparent KD of MS2 coat protein (MS2 coat protein [1]) [µM] | apparent KD of MS2 coat protein (MS2 coat protein [2]) [µM] |
| --- | --- | --- |
| AGCUAGUCAGGAUAUACAAAAAUGCUAGAAGACGUAAGGGAACAUGAGGAUCACCCAUGUAGAAGGGACUAGCA [Diamond 45] | 0.0583 | 0.0372 |
| AAAGGACAAGGAUAUACAUGAGGAUCACCCAUGUAAAAAACAUAAUAAAAUAACUUAUGUAGAAGGUGUCCAAA [Mat - Exclusion 3 - Eli mod - D99] | 0.0571 | 0.0231 |
| UAUGAGCGAGGAUAUGCUUGGGACUGUCGGAAUGUGGCGGGACAUGAGGAUCACCCAUGUAGAAGGCGCGAGCG [Harteesian Stick] | 0.126 | 0.0779 |
| AAAAAACAUGAGGAUCACCCAUGUGAGGAUAUCCAAAAGAAAAGAAAAGAAAGAAGAAGGAGAAGGCACAAGAA [Khufu] | 0.0479 | 0.0552 |
| AUAAAGUGAGGAUAUACAUGAGGAUCACCCAUGUGAAAGUCUAAAAAAAUGACAAAAAGUAGAAGGCACAAAUA [Mai Tai2 ala mod Fisker] | 0.0235 | 0.0188 |
| AAAAAGGGAGGAUAUACAUGAGGAUCACCCAUGUAUCAGACGAAAAAGAGUCUGAAGUGUAGAAGGCCCAAAAA [Exclusion3-cac2] | 0.0256 | 0.02 |
| CAAAGUGGAGGAUAUACAUGAGGAUCACCCAUGUAAGGACAAUAAAUAAGAAGAAGAAGUAGAAGGCCACUCAA [e3-2] | 0.0402 | 0.0289 |
| AAGAAGCUAGGAUAUACAAAAUAAAAGAAAAGAAAGAAAGAACAUGAGGAUCACCCAUGUAGAAGGAGCAAGAA [Sebkay] | 0.0214 | 0.0313 |
| CGCUAGUCAGGAUAUACAAACAUGUCAAAAGACGUGAAAAAACAUGAGGAUCACCCAUGUAGAAGGGACUAGCG [Mat - Exclusion 2 - JL mod - D18] | 0.0177 | 0.0157 |
| AAAAAACAUGAGGAUCACCCAUGUGAGGAUAUCUAAAACAAAACAAAAACAAAACAAAGGAGAAGGUAUAUGAA [Amethyst 67] | 0.0292 | 0.019 |
| ACAAACCGAGGAUAUACAUGAGGAUCACCCAUGUAGACGAACACAUGCGUCAUCACCAGUAGAAGGUGGAAAAC [Telaandi] | 0.0263 | 0.0299 |
| AACAGUACAGGAUAUACAUGAGGAUCACCCAUGUAAAAAAAGGGUGGCGUACCACAAAGUAGAAGGGUACUGGA [Moding Maslow revisited (73) 10] | 0.0441 | 0.109 |
| AAGAAUUGAGGAUAUACAAGGAAGAAAGAAAAGAAAAGAAAACAUGAGGAUCACCCAUGUAGAAGGCAAUAGAA [EteRNA is fun!] | 0.0125 | 0.0235 |
| AAAAAGUGAGGAUAUGCGCUGUCAAGUAGACACGAGCAGUCGUAGAAGGCACAUGAGGAUCACCCAUGUUUAAA [EX4 Malc#23] | 0.0194 | 0.0285 |
| AACUAGCUAGGAUAUACAUGAGGAUCACCCAUGUAAAAAAAAAAAAAAAAAUUUUUAUGUAGAAGGAGCUAGUA [Design 1 - Brourd - Exclusion 3] | 0.0354 | 0.0279 |
| AAAGGGUCAGGAUAUUGAUUAAUAAUAAAAUAAAUAAAGAUCAAGAAGGGACAUGAGGAUCACCCAUGUAUAAA [May 78] | 0.063 | 0.0405 |
| AAAAAGUCAGGAUAUACAGGAGUGCGAAAGCACAAAAAAAAACAUGAGGAUCACCCAUGUAGAAGGGACAAGAA [Married to this design, 61% 6] | 0.0331 | 0.0527 |
